Measured values taken from patent US20130116146A1 (University of California, published 2013).
Non-standard residues stand in square brackets, D forms with d. Primed or numbered codes have the meaning given here. No end group written: not given here. Me3″ = trimethyl (trimethyl-lysine); Ahx = NCCCCCC(=O)O

target: T1, GST-tagged Abl SH3 domain fusion protein (human, UniProt P00519 61-121, limits assumed); test: peptide microarray, GST-Abl SH3 5 uM overlaid, peptide printed at 1 mg/ml, Cy3 fluorescence, triplicates
T1 construct: domain: SH3 domain; also called GST-Abl SH3; Abl1 SH3 domain; not shown: GST tag
Method: All peptides were synthesized by Sigma-Aldrich. The peptides were printed onto glass slides in triplicates by ArrayIt Corporation. A buffer blank and a Cy3 marker were also printed in triplicates. The peptide arrays were blocked with the blocking buffer (5% non-fat dry milk, TBS pH8.0, 0.05% Tween 20) for an hour at room temperature. Next, the peptide arrays were incubated overnight at 4° C. with purified GST-Abl SH3 in the blocking buffer at a final concentration of 5 μM. After washing three times for ten minutes with the TBST buffer (TBS pH8.0, 0.05% Tween 20), an anti-GST antibody (Santa Cruz Biotechnology) was added to a final concentration of 0.2 μg/ml in the blocking buffer for one hour at room temperature. The arrays were then washed three times for ten minutes with the TBST buffer. Finally, the arrays were incubated with the secondary antibody, Cy3-conjugated goat-anti-mouse IgG (H+L) (Jackson ImmunoResearch), for one hour at room temperature, followed by washing for three times for ten minutes with the TBST buffer. As a control, the peptide array was incubated with the anti-GST and the secondary antibodies alone.
To analyze the microarray data, the spots that were flagged as noisy were first removed. For the high (1 mg/ml) and low (0.5 mg/ml) printing concentrations, 724 and 767 (out of 800) spots remained for later analyses, respectively. Next, the statistical cut-off was determined for the significant fluorescence signal by modeling the background intensity distribution using a Gamma distribution (FIG. 4). The spots were binned based on the fluorescence intensity. To have a better curve fitting, the long tail of the histogram that represented strong binding peptides was removed and only the bins with intensity less than 900 and 1500 for the high and low concentrations, respectively, were kept. The model fitting and p-value calculation were conducted using R and P-value of 0.05 was used as the cutoff.

T1 sequence (P00519 61-121 limits assumed): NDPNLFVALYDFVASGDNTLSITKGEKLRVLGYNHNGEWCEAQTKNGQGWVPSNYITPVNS

Row | Binder | Average fluorescence intensity (high printing concentration)
1 | CPLQPPPPPP (not fully specified (N-terminus)) [PDE4D_HUMAN peptide CPLQPPPPPP] | 840
2 | [Ahx]PPAGGPPPPP (protein label as printed) [VASP2_HUMAN 165-174 peptide PPAGGPPPPP] | 26200
3 | [Ahx]PPPPPPPGPP (protein label as printed) [WASP2_HUMAN 394-403 peptide PPPPPPPGPP] | 2380
4 | [Ahx]APSGPPPPPP [WASL_HUMAN 354-363 peptide APSGPPPPPP] | 52300
5 | [Ahx]VAPPPPPPPP [WASL_HUMAN 371-380 peptide VAPPPPPPPP] | 914
6 | APPTPPPPPP (not fully specified (N-terminus)) [RAPH1_HUMAN 811-820 peptide APPTPPPPPP] | 54400
7 | SPPLPPPPPP (not fully specified (N-terminus)) [RAPH1_HUMAN 677-686 peptide SPPLPPPPPP] | 17500
8 | [Ahx]LPPPPLPPPP [YLPM1_HUMAN 81-90 peptide LPPPPLPPPP] | 595
9 | [Ahx]PVAPPPPPPP [WASL_HUMAN 370-379 peptide PVAPPPPPPP] | 48800
10 | PNQVPPPPPP (not fully specified (N-terminus)) [ENAH_HUMAN 357-366 peptide PNQVPPPPPP] | 58000
11 | [Ahx]SRGGPPPPPP [WASL_HUMAN 283-292 peptide SRGGPPPPPP] | 744
12 | [Ahx]GRGGPPPPPP [WASP_HUMAN 363-372 peptide GRGGPPPPPP] | 1300
13 | [Ahx]GPVAPPPPPP [WASL_HUMAN 369-378 peptide GPVAPPPPPP] | 45000
14 | LPPGPPPPVP (not fully specified (N-terminus)) [CPSF6_HUMAN 292-301 peptide LPPGPPPPVP] | 1900
15 | APTVPPPLPP (not fully specified (N-terminus)) [3BP1_HUMAN 616-625 peptide APTVPPPLPP] | 45100
16 | PPPPPVPPPP (not fully specified (N-terminus)) [EVL_HUMAN 185-194 peptide PPPPPVPPPP] | 4680
17 | [Ahx]PPPPPMPPPP [YLPM1_HUMAN 102-111 peptide PPPPPMPPPP] | 22800
18 | [Ahx]GPPMPPPPPP [WASP_HUMAN 390-399 peptide GPPMPPPPPP] | 23400
19 | PPSLPPPPPP (not fully specified (N-terminus)) [CBLB_HUMAN 818-827 peptide PPSLPPPPPP] | 35000
20 | PPAYPPPPVP (not fully specified (N-terminus)) [3BP2_HUMAN 201-210 peptide PPAYPPPPVP] | 29700
21 | PPAVPPPPVP (not fully specified (N-terminus)) [RIN1_HUMAN 259-268 peptide PPAVPPPPVP] | 42600

target: T2, Polycomb protein chromodomain (a.a. 1-90), GST-tagged fusion protein (Drosophila melanogaster, UniProt P26017 1-90); test: peptide microarray, GST-Polycomb chromodomain overlaid on trimethylated peptides, p<0.001 in at least two of three spots
T2 construct: range 1-90; also called Polycomb-GST fusion protein; Polycomb chromodomain; not shown: GST tag
T2 sequence (looked up): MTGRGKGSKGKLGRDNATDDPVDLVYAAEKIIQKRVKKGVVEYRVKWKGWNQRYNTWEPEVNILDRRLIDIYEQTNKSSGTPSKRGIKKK
Text: There are a total of 46 histone peptide sequences (9 a.a. long) with a single lysine-trimethylation site which are conserved between the human and fruit fly H2, H3 and H4 proteins (Table II). These were screened for Polycomb protein chromodomain binding by peptide microarray. Each peptide sequence was screened as triplets, and the fluorescence intensity was quantified with background subtraction individually for each spot from the microarray images by ImageJ⁹ and the whole data set was fit to a mixed Gaussian distribution model (FIG. 8, Table III).
The peptide microarray was rinsed with TBST buffer (25 mM Tris, 125 mM NaCl, 0.05% Tween-20, pH 8) followed by blocking with 5% non-fat milk in TBST (room temperature 1 hour or 4° C. overnight). The slide was then incubated at 4° C. with Polycomb-GST fusion protein at a final concentration of […] in 5% non-fat milk/TBST for 6 hours. After washing three times for 10 minutes each with TBST, the slide was incubated with an anti-GST mouse monoclonal IgG antibody (Thermo) at a final concentration of 1 μg/mL in 5% non-fat milk/TBST and shaken gently for 1 hour at room temperature. […] The slide was shaken for 1 hr at room temperature and washed three times with TBST.

Row | Binder | binding result
22 | GGAKRHRK(Me3″)V (also called H4 20) [GGAKRHRKV, H4_DROME lysine site 20, trimethylated] | binds
23 | RIHRLLRK(Me3″)G (also called H2A1A 35) [RIHRLLRKG, H2A_DROME lysine site 35, trimethylated] | binds
24 | PRKQLATK(Me3″)A (also called H3.3 23) [PRKQLATKA, H3_DROME lysine site 23, trimethylated] | binds
25 | REIRRYQK(Me3″)S (also called H3.3 56) [REIRRYQKS, H3_DROME lysine site 56, trimethylated] | binds
26 | LATKAARK(Me3″)S (also called H3K27me3; H3.3 27) [LATKAARKS, H3_DROME lysine site 27, trimethylated] | binds
27 | ASKDLKVK(Me3″)R (also called H2AZ, H2AV 79) [ASKDLKVKR, H2AV_DROME lysine site 79, trimethylated] | binds
28 | IQAVLLPK(Me3″)K (also called H2A1 117) [IQAVLLPKK, H2A_DROME lysine site 117, trimethylated] | binds
29 | DSGKAKAK(Me3″)A (also called H2AV 15) [DSGKAKAKA, H2AV_DROME lysine site 15, trimethylated] | binds
30 | GRIHRHLK(Me3″)S (also called H2AZ 37) [GRIHRHLKS, H2AV_DROME lysine site 37, trimethylated] | binds
31 | MDVVYALK(Me3″)R (also called H4 91) [MDVVYALKR, H4_DROME lysine site 91, trimethylated] | binds
32 | RTKQTARK(Me3″)S (also called H3.3 9) [RTKQTARKS, H3_DROME lysine site 9, trimethylated] | binds
33 | EGTKAVTK(Me3″)Y (also called H2B1A 117) [EGTKAVTKY, H2B_DROME lysine site 117, trimethylated] | binds
